# Data reported in FireProtDB (doi:10.1021/bi015547k).
# B1: Steroid Delta-isomerase wild type, P07445 (protein)
# chain: MNLPTAQEVQGLMARYIELVDVGDIEAIVQMYADDATVEDPFGQPPIHGREQIAAFYRQGLGGGKVRACLTGPVRASHNGCGAMPFRVEMVWNGQPCALDVIDVMRFDEHGRIQTMQAYWSEVNLSVREPQ
# Settings: Pseudomonas putida; pH 7; 25 °C; Urea; CD; potassium phosphate 20 mM; reversible: yes; whole UniProt chain shown
protein,measurement,value
B1,denaturant m value,3.39 kcal/mol/M
same,denaturant midpoint (higher = more stable),5.22 M
same,unfolding free energy,102 kJ/mol
